Reference: patent US20260217863A1, “ANTIBODY OR PEPTIDE BINDING SPECIFICALLY TO RNASE A, IMMUNOASSAY DEVICE AND METHOD FOR DETECTING RNASE A, AND METHOD FOR COLLECTING RNASE A” (UIF (University Industry Foundation), Yonsei University, priority 2022, published 2026)

Key:
[1] = molecular target: Ribonuclease A (Type II-A) from bovine pancreas (bovine) (UniProt P61823); assay: flow cytometry (FL1-H) of E. coli displaying the Fv variant, incubated with fluorescence-labeled RNase-A
[2] = molecular target: Ribonuclease A (Type II-A) from bovine pancreas (bovine) (UniProt P61823); assay: flow cytometry, E. coli surface-displayed Fv, titration of fluorescently labeled RNase A, fit with an adsorption model

Sequence of Ribonuclease A (Type II-A) from bovine pancreas (bovine) (P61823 27-150): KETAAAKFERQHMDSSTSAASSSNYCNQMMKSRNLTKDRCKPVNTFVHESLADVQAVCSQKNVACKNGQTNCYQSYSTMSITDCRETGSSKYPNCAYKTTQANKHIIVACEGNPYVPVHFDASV

B1: Fv variant clone 5, surface-expressed on the outer membrane of E. coli (protein, part only; not given: AIDA-1 display anchor and linker, not shown: another chain or arm of the molecule; large carriers; small tags and cut ends)
VH: EVQLVESAAEVRRPGASVKITCKASGYSFSTYGIQWMRQAPGQRPEWLGWIHAGTGGTKYSRKFQGRITITRDTSANTVYLDLNSLTSEDTAVYYCARCGPDSDVMTDFWGQGTTVTVSS
Which fluorescence intensity, at 3.125 µM fluorescence-labeled RNase-A [1] does the source give for B1 here?
The fluorescence intensity, at 3.125 µM fluorescence-labeled RNase-A was 31.5 a.u.

What about the fluorescence intensity, at 6.25 µM fluorescence-labeled RNase-A [1] of the same binder?
Its fluorescence intensity, at 6.25 µM fluorescence-labeled RNase-A is 44.7 a.u.

And the fluorescence intensity, at 12.5 µM fluorescence-labeled RNase-A [1]?
Its fluorescence intensity, at 12.5 µM fluorescence-labeled RNase-A is 72.3 a.u.

And the fluorescence intensity, at 25 µM fluorescence-labeled RNase-A [1]?
Its fluorescence intensity, at 25 µM fluorescence-labeled RNase-A is 108 a.u.

And the fluorescence intensity, at 50 µM fluorescence-labeled RNase-A [1]?
The fluorescence intensity, at 50 µM fluorescence-labeled RNase-A was 167 a.u.

And the fluorescence intensity, at 100 µM fluorescence-labeled RNase-A [1]?
Its fluorescence intensity, at 100 µM fluorescence-labeled RNase-A is 196 a.u.

What about the Kd [2] of the same binder?
The Kd was 23.8 µM.

B2: Fv variant clone 39, surface-expressed on the outer membrane of E. coli (protein, part only; not given: AIDA-1 display anchor and linker, not shown: another chain or arm of the molecule; large carriers; small tags and cut ends)
VH: EVQLVESAAEVRRPGASVKITCKASGYSFSTYGIQWMRQAPGQRPEWLGWIHAGTGGTKYSRKFQGRITITRDTSANTVYLDLNSLTSEDTAVYYCARDGTAKKSRKDDWGQGTTVTVSS
How did the fluorescence intensity, at 3.125 µM fluorescence-labeled RNase-A [1] turn out when B2 was run?
The fluorescence intensity, at 3.125 µM fluorescence-labeled RNase-A was 15.5 a.u.

What about the fluorescence intensity, at 6.25 µM fluorescence-labeled RNase-A [1] of the same binder?
The fluorescence intensity, at 6.25 µM fluorescence-labeled RNase-A was 19.9 a.u.

And the fluorescence intensity, at 12.5 µM fluorescence-labeled RNase-A [1]?
The fluorescence intensity, at 12.5 µM fluorescence-labeled RNase-A was 23.3 a.u.

And the fluorescence intensity, at 25 µM fluorescence-labeled RNase-A [1]?
The fluorescence intensity, at 25 µM fluorescence-labeled RNase-A was 31.8 a.u.

What about the fluorescence intensity, at 50 µM fluorescence-labeled RNase-A [1] of the same binder?
Its fluorescence intensity, at 50 µM fluorescence-labeled RNase-A is 37.8 a.u.

What about the fluorescence intensity, at 100 µM fluorescence-labeled RNase-A [1] of the same binder?
Its fluorescence intensity, at 100 µM fluorescence-labeled RNase-A is 51.9 a.u.

And the Kd [2]?
The Kd was 28.7 µM.

B3: Fv variant clone 23, surface-expressed on the outer membrane of E. coli (protein, part only; not given: AIDA-1 display anchor and linker, not shown: another chain or arm of the molecule; large carriers; small tags and cut ends)
VH: EVQLVESAAEVRRPGASVKITCKASGYSFSTYGIQWMRQAPGQRPEWLGWIHAGTGGTKYSRKFQGRITITRDTSANTVYLDLNSLTSEDTAVYYCARYGPVGRVKRDDWGQGTTVTVSS
With B3 as the binder, how does the fluorescence intensity, at 3.125 µM fluorescence-labeled RNase-A [1] read?
The fluorescence intensity, at 3.125 µM fluorescence-labeled RNase-A was 14 a.u.

And the fluorescence intensity, at 6.25 µM fluorescence-labeled RNase-A [1]?
Its fluorescence intensity, at 6.25 µM fluorescence-labeled RNase-A is 17.2 a.u.

What about the fluorescence intensity, at 12.5 µM fluorescence-labeled RNase-A [1] of the same binder?
The fluorescence intensity, at 12.5 µM fluorescence-labeled RNase-A was 23.8 a.u.

What about the fluorescence intensity, at 25 µM fluorescence-labeled RNase-A [1] of the same binder?
Its fluorescence intensity, at 25 µM fluorescence-labeled RNase-A is 37.5 a.u.

And the fluorescence intensity, at 50 µM fluorescence-labeled RNase-A [1]?
Its fluorescence intensity, at 50 µM fluorescence-labeled RNase-A is 47.9 a.u.

What about the fluorescence intensity, at 100 µM fluorescence-labeled RNase-A [1] of the same binder?
Its fluorescence intensity, at 100 µM fluorescence-labeled RNase-A is 69.7 a.u.

And the Kd [2]?
The Kd was 29.4 µM.
